Test results: patent US20230312724A1 (KADMON, published 2023)

T1: human B7-H4-his (human, UniProt Q7Z7D3 25-259)
T1 construct: also called hB7-H4-his; hB7-H4 his; not shown: his tag
T1 sequence: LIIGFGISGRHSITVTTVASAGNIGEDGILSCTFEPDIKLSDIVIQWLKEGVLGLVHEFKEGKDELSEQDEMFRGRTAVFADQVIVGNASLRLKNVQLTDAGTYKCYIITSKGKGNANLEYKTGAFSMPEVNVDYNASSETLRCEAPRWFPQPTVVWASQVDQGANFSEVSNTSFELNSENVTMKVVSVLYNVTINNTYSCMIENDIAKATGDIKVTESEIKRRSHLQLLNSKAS

T2: human B7-H4 expressed on cells (human, UniProt Q7Z7D3 25-282)
T2 construct: Transfected CHO cells or tumor cell lines that carry hB7-H4; also called cellular hB7-H4
T2 sequence: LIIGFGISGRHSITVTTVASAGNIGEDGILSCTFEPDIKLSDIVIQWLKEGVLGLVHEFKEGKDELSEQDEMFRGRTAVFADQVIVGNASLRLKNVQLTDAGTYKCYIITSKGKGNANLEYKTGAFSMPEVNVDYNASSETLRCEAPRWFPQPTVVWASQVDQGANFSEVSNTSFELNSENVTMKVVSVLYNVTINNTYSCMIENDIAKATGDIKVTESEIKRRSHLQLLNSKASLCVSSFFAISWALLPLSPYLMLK

B1: Control antibody 1 (antibody 20502 described in US20190085080A1) (antibody, V domains shown)
VH: QLQLQESGPGLVKPSETLSLTCTVSGGSIKSGSYYWGWIRQPPGKGLEWIGNIYYSGSTYYNPSLRSRVTISVDTSKNQFSLKLSSVTAADTAVYYCAREGSYPNQFDPWGQGTLVTVSS
VL: EIVMTQSPATLSVSPGERATLSCRASQSVSSNLAWYQQKPGQAPRLLIYGASTRATGIPARFSGSGSGTEFTLTISSLQSEDFAVYYCQQYHSFPFTFGGGTKVEIK
notes: also called (+) control Ab1; (+) Ab1
B2: 39A11/57G8 (antibody, human IgG1, V domains shown)
VH: EVQLLESGGGLVQPGGSLRLSCAASGFTFSSYGMHWVRQAPGKGLEWVASISSSSGYIYYADSVKGRFTISRDNSKNTLYLQMNSLRAEDTAVYYCARASSGMDVWGQGTTVTVSS
VL: DIQMTQSPSSLSASVGDRVTITCRASQSIRSYLNWYQQKPGKAPKLLIYYASSLQSGVPSRFSGSGSGTDFTLTISSLQPEDFATYYCQQYYSTPLTFGQGTKVEIK
notes: 39A11 VH with 57G8 VL

Key:
human B7-H4-his = biological target: T1, human B7-H4-his; assay: ELISA on coated hB7-H4-his
Experimental: (§1) About 1-2 μg/ml of human or mouse B7-H4-Fc (or his-tagged) was immobilized on ELISA plates (Immuno 2HB, Thermo scientific, cat #3455) at 4° C. overnight. After blocking the plates with 3% PBS+milk, serial diluted antibodies were added to the blocked plates and incubated at RT for 1-1.5 h. After washing the plates with PBS-T (0.05%), horse radish peroxidase (HRP)-conjugated antibody targeting the hFab was added to the plate. Signals were developed by adding 3,3′,5,5′-Tetramethylbenzidine (TMB (followed 1N of H₂SO₄ to stop the reaction. The OD at 450 nm was read by ELISA plate reader (Infinite M1000 from TECAN). GraphPad from Prism was used to plot OD450 vs. antibody concentration curve and to calculate the EC50 values.

human B7-H4-Fc = biological target: T3, human B7-H4-Fc (human); assay: ELISA, coated hB7-H4-Fc
T3 construct: also called hB7-H4-Fc; hB7-H4 Fc
T3 sequence (chain, as listed by the source): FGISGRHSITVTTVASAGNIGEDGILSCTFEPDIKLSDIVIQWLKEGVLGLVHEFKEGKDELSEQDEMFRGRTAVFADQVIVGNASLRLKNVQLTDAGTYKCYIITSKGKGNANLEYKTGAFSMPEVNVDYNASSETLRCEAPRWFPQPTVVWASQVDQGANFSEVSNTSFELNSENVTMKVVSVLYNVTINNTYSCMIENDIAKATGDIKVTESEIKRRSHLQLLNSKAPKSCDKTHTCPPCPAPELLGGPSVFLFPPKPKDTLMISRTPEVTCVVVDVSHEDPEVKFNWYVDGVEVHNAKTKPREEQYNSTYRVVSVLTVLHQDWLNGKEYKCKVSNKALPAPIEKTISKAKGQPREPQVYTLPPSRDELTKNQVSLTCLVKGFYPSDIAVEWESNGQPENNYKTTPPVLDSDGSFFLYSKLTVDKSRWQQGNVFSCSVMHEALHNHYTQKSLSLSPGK
Experimental: as §1

[1] = biological target: T4, IgV domain of human B7-H4-Fc (human); assay: ELISA, coated hB7-H4 IgV domain
T4 construct: also called hB7-H4 IgV domain
T4 sequence (chain, as listed by the source): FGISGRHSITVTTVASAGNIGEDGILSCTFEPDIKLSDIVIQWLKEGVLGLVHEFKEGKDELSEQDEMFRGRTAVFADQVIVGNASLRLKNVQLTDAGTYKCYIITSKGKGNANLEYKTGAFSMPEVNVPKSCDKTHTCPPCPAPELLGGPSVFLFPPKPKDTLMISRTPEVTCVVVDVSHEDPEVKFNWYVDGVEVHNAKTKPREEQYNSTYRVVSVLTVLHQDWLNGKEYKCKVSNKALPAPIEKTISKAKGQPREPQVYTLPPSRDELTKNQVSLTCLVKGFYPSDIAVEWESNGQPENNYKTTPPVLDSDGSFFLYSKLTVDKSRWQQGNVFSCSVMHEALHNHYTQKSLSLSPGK
Experimental: as §1

mouse B7-H4-Fc = biological target: T5, mouse B7-H4-Fc (mouse; human); assay: ELISA, coated mB7-H4-Fc
T5 construct: also called mB7-H4-Fc; mB7-H4-hFc
T5 sequence (chain, as listed by the source): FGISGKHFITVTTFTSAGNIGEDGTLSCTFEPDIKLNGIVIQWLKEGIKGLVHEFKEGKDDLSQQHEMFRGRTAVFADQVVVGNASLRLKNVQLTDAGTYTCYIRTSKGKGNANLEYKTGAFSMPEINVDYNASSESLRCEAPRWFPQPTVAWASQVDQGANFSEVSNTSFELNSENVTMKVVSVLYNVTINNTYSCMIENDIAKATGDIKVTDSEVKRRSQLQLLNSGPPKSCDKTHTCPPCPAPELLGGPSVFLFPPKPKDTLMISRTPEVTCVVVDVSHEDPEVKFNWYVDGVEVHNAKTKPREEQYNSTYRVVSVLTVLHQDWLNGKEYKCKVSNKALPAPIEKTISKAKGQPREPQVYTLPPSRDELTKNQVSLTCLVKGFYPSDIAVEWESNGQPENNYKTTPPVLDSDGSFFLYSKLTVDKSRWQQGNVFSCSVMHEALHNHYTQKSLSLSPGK
Outline: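 Each antibody, diluted in series, was incubated 1-1.5 h at RT on milk-blocked wells coated with ~1-2 μg/ml human or mouse B7-H4-Fc (or his-tagged) at 4° C overnight. An HRP anti-human Fab with TMB gave the OD450 signal.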

[2] = biological target: T6, IgV domain of mouse B7-H4-Fc (mouse; human); assay: ELISA on coated IgV domain of mB7-H4
T6 construct: also called mB7-H4 IgV domain
T6 sequence (chain, as listed by the source): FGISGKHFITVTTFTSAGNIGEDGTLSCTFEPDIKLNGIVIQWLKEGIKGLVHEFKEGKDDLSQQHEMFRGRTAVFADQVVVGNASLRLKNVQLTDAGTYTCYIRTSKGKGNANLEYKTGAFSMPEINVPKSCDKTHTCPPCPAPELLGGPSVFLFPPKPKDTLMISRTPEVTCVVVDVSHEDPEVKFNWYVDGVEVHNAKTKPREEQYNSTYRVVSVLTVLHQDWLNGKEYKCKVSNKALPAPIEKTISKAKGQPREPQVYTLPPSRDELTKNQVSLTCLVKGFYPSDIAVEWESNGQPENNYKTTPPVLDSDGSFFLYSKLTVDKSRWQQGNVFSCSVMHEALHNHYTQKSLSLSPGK
Experimental: as §1

[3] = biological target: T2, human B7-H4 expressed on cells; assay: flow cytometry, MDA-MB-468 cells
Experimental: (§2) Cells were harvested, washed once, and then re-suspended to the concentration of 1×10⁶ cells/ml in ice cold FACS Buffer. 25 μl of cell suspension was added to each well of a 96-well round-bottom microliter plate. Serially diluted antibodies or fusion proteins were added to each well and incubated for 1 hour at 4° C. Cells were washed three times by centrifugation at 1500 rpm for 5 minutes, and then stained with secondary antibody (1:200 dilution) for 30 min at 4° C. in the dark. Cells were washed once, re-suspended in 100 μl PBS buffer and then analyzed using Guava Flow Cytometry EasyCyte system.

[4] = biological target: T2, human B7-H4 expressed on cells; assay: flow cytometry, SK-BR-3 cells
Outline: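 Cells at 1×10⁶ cells/ml in ice-cold FACS buffer incubated with serially diluted antibodies or fusion proteins for 1 h at 4 °C. After three washes, secondary antibody (1:200) applied 30 min at 4 °C in the dark; binding read by flow cytometry.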

[5] = biological target: T2, human B7-H4 expressed on cells; assay: flow cytometry on SK-BR-3 cells
Experimental: as §2

Binder	EC50 (read off the curve) (human B7-H4-his) [nM]	EC50 (read off the curve) (human B7-H4-Fc) [nM]	EC50 (read off the curve) [1] [nM]	EC50 (read off the curve) (mouse B7-H4-Fc) [nM]	EC50 (read off the curve) [2] [nM]	EC50 [3] [nM]	EC50 [4] [nM]	EC50 (read off the curve) [5] [nM]
B1	~0.2	~0.1	~0.2	~0.1	~0.2	–	–	–
B2	–	–	–	–	–	13.1	1.9	~2
